Results reported in article PMC11698036, “Borg5 restricts contractility and motility in epithelial MDCK cells” (Journal of Cell Science, 2024).
One block for each binder: values may come before it.

Tests used:
[1] = biological target: T1, His–Borg5 (recombinant mouse Borg5, Cdc42EP1) (mouse, UniProt Q91W92 1-409); experiment: pull-down; three-way assay: His–Borg5 pre-incubated with septin 9-6-7-2 complexes, then bound to GST–MyoIIA-Rod immobilised on glutathione resin; septin buffer (300 mM KCl), 4°C; Coomassie gel and His blot; two experiments; settings: both partners purified
T1 construct: Borg5 (Cdc42EP1), mouse cDNA (Borg5–Myc cDNA of Vong et al., 2010), PCR-cloned into pet28a+; All recombinant Borg5 constructs were based on mouse Borg5–Myc cDNA; Runs at 50 kDa on the His blot; also called His-tagged Borg5; source: E. coli BL21(DE3), purified (boiled, 8 M urea, Ni-NTA agarose; also purified under native conditions)
T1 sequence (looked up): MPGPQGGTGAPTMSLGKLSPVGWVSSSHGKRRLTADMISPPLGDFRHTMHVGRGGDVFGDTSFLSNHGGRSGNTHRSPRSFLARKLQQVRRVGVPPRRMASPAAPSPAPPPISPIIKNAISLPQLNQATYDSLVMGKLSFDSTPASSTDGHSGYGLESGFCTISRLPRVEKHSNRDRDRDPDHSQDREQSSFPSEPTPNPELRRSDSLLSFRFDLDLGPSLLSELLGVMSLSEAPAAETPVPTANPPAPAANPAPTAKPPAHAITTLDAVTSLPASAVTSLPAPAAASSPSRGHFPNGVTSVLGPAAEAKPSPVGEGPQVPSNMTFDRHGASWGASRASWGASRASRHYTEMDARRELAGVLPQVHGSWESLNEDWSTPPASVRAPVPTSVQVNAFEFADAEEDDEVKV

[2] = biological target: T1, His–Borg5 (recombinant mouse Borg5, …); experiment: pull-down; three-way assay: His–MyoIIA-Rod pre-incubated with His–Borg5, then bound to His–SEPT2/6/7/9–Strep immobilised on Strep-Tactin Sepharose; septin buffer (300 mM KCl), 4°C; biotin elution; His blot; four experiments; settings: both partners purified

His–Borg5 binding to Myo–GST with SEPT complexes, relative to that without septins (experiment 1) [1]: 0.6 fraction of that observed without septins present | His–Borg5 binding to Myo–GST with SEPT complexes, relative to that without septins (experiment 2) [1]: 0.3 fraction of that observed without septins present
B1: septin 9–septin 6–septin 7–septin 2 complex (His–SEPT2/6/7/9–Strep) (complex)
chain 1: MSKQQPTQFINPETPGYVGFANLPNQVHRKSVKKGFEFTLMVVGESGLGKSTLINSLFLTDLYPERIIPGAAEKIERTVQIEASTVEIEERGVKLRLTVVDTPGYGDAINCRDCFKTIISYIDEQFERYLHDESGLNRRHIIDNRVHCCFYFISPFGHGLKPLDVAFMKAIHNKVNIVPVIAKADTLTLKERERLKKRILDEIEEHSIKIYHLPDAESDEDEDFKEQTRLLKASIPFSVVGSNQLIEAKGKKVRGRLYPWGVVEVENPEHNDFLKLRTMLITHMQDLQEVTQDLHYENFRSERLKRGGRKVENEDMNKDQILLEKEAELRRMQEMIARMQAQMQMQMQGGDSDSGALGQHV
chain 2: MAATDIARQVGEGCRTVPLAGHVGFDSLPDQLVNKSVSQGFCFNILCVGETGLGKSTLMDTLFNTKFEGEPATHTQPGVQLQSNTYDLQESNVRLKLTIVSTVGFGDQINKEDSYKPIVEFIDAQFEAYLQEELKIRRVLHTYHDSRIHVCLYFIAPTGHSLKSLDLVTMKKLDSKVNIIPIIAKADAISKSELTKFKIKITSELVSNGVQIYQFPTDDESVAEINGTMNAHLPFAVIGSTEELKIGNKMMRARQYPWGTVQVENEAHCDFVKLREMLIRVNMEDLREQTHTRHYELYRRCKLEEMGFKDTDPDSKPFSLQETYEAKRNEFLGELQKKEEEMRQMFVQRVKEKEAELKEAEKELHEKFDRLKKLHQDEKKKLEDKKKSLDDEVNAFKQRKTAAELLQSQGSQAGGSQTLKRDKEKKNNPWLCTE
chain 3: MSVSARSAAAEERSVNSSTMVAQQKNLEGYVGFANLPNQVYRKSVKRGFEFTLMVVGESGLGKSTLINSLFLTDLYSPEYPGPSHRIKKTVQVEQSKVLIKEGGVQLLLTIVDTPGFGDAVDNSNCWQPVIDYIDSKFEDYLNAESRVNRRQMPDNRVQCCLYFIAPSGHGLKPLDIEFMKRLHEKVNIIPLIAKADTLTPEECQQFKKQIMKEIQEHKIKIYEFPETDDEEENKLVKKIKDRLPLAVVGSNTIIEVNGKRVRGRQYPWGVAEVENGEHCDFTILRNMLIRTHMQDLKDVTNNVHYENYRSRKLAAVTYNGVDNNKNKGQLTKSPLAQMEEERREHVAKMKKMEMEMEQVFEMKVKEKVQKLKDSEAELQRRHEQMKKNLEAQHKELEEKRRQFEDEKANWEAQQRILEQQNSSRTLEKNKKKGKIF
chain 4: MKKSYSGGTRTSSGRLRRLGDSSGPALKRSFEVEEVETPNSTPPRRVQTPLLRATVASSTQKFQDLGVKNSEPSARHVDSLSQRSPKASLRRVELSGPKAAEPVSRRTELSIDISSKQVENAGAIGPSRFGLKRAEVLGHKTPEPAPRRTEITIVKPQESAHRRMEPPASKVPEVPTAPATDAAPKRVEIQMPKPAEAPTAPSPAQTLENSEPAPVSQLQSRLEPKPQPPVAEATPRSQEATEAAPSCVGDMADTPRDAGLKQAPASRNEKAPVDFGYVGIDSILEQMRRKAMKQGFEFNIMVVGQSGLGKSTLINTLFKSKISRKSVQPTSEERIPKTIEIKSITHDIEEKGVRMKLTVIDTPGFGDHINNENCWQPIMKFINDQYEKYLQEEVNINRKKRIPDTRVHCCLYFIPATGHSLRPLDIEFMKRLSKVVNIVPVIAKADTLTLEERVHFKQRITADLLSNGIDVYPQKEFDEDSEDRLVNEKFREMIPFAVVGSDHEYQVNGKRILGRKTKWGTIEVENTTHCEFAYLRDLLIRTHMQNIKDITSSIHFEAYRVKRLNEGSSAMANGMEEKEPEAPEM
notes: Prepared according to Castro-Linares et al. (2022); Tag ends are read from the plasmid names; As I recall, these Addgene plasmids hold mouse SEPT2 and human SEPT6, SEPT7 and SEPT9_i1; also called septin 9-6-7-2; SEPT complexes; source: E. coli BL21(DE3), co-expressed, purified (nickel agarose, then Strep-Tactin Sepharose); not shown: 6xHis, N-terminal, kept; Strep tag, C-terminal, kept; copies: + …

Borg5–SEPT binding with His-MyoIIRod, relative to that without MyoIIRod [2]: 0.57 fraction of that without MyoIIRod
B2: His-tagged rod domain of myosin IIA (His–MyoIIA-Rod) (domain or fragment, UniProt P35579 1339-1960, looked up)
chain: NSFREQLEEEEEAKHNLEKQIATLHAQVADMKKKMEDSVGCLETAEEVKRKLQKDLEGLSQRHEEKVAAYDKLEKTKTRLQQELDDLLVDLDHQRQSACNLEKKQKKFDQLLAEEKTISAKYAEERDRAEAEAREKETKALSLARALEEAMEQKAELERLNKQFRTEMEDLMSSKDDVGKSVHELEKSKRALEQQVEEMKTQLEELEDELQATEDAKLRLEVNLQAMKAQFERDLQGRDEQSEEKKKQLVRQVREMEAELEDERKQRSMAVAARKKLEMDLKDLEAHIDSANKNRDEAIKQLRKLQAQMKDCMRELDDTRASREEILAQAKENEKKLKSMEAEMIQLQEELAAAERAKRQAQQERDELADEIANSSGKGALALEEKRRLEARIAQLEEELEEEQGNTELINDRLKKANLQIDQINTDLNLERSHAQKNENARQQLERQNKELKVKLQEMEGTVKSKYKASITALEAKIAQLEEQLDNETKERQAACKQVRRTEKKLKDVLLQVDDERRNAEQYKDQADKASTRLKQLKRQLEEAEEEAQRANASRRKLQRELEDATETADAMNREVSSLKNKLRRGDLPFVVPRRMARKGAGDGSDEEVDGKADGAEAKPAE
notes: Myosin IIA heavy chain (MYH9), rod domain, amino acids 1339–1960, in pet28a; Construct provided by Anne Bresnick; also called His-MyoIIRod; His-MyoRod; source: E. coli BL21(DE3), purified (Mg-ATP step, nickel agarose)
